# Test results from patent publication US20170056486A1.
# Target: HLA-A*24 (human)
# Assay: UV-exchange ELISA (anti-b2m); yield <20%
row,peptide exchange yield [%],Binder
1,< 20,TYKDYVDLF

# Target: HLA-A*24 (human)
# Assay: UV-exchange ELISA (anti-b2m); yield >=75%
row,peptide exchange yield [%],Binder
1,> 75,NYGVLHVTF
2,> 75,VFIAQGYTL
3,> 75,EYLQNLNHI
4,> 75,KYSDVKNLI
5,> 75,KFDDVTMLF
6,> 75,KYTHFIQSF
7,> 75,NYENKQYLF
8,> 75,QFITSTNTF
9,> 75,NYMPGQLTI
10,> 75,VFIDHPVHL
11,> 75,VYTGIDHHW
12,> 75,AYKSEVVYF

# Target: HLA-A*24 (human)
# Assay: UV-exchange ELISA (anti-b2m); yield 20%-49%
row,Binder,peptide exchange yield [%]
1,SYVASFFLL,20 to 49
2,KYYRQTLLF,20 to 49
3,VYPDTVALTF,20 to 49
4,IFITKALQI,20 to 49
5,VYNAVSTSF,20 to 49
6,LYQDHMQYI,20 to 49

# The next lines start with the values.
row,peptide exchange yield [%],Binder
1,20 to 49,KYPDIASPTF
2,20 to 49,DYVGFTLKI
3,20 to 49,VFLPRVTEL
4,20 to 49,YFIKSPPSQLF
5,20 to 49,VYNYAEQTL
6,20 to 49,KYTSYILAF
7,20 to 49,AYSHLRYVF
8,20 to 49,MYLKLVQLF
9,20 to 49,VYTPVLEHL
10,20 to 49,SYAELGTTI
11,20 to 49,SYAPPSEDLFL
12,20 to 49,SFLNIEKTEILF
13,20 to 49,SYAPPSEDLF
14,20 to 49,KYLSVQLTL
15,20 to 49,KFFDDLGDELLF
